In patent US20200148774A1:

Target: hCD3ε 1-27 Fc (human)
Assay: SPR (Biacore)

Sequence of hCD3ε 1-27 Fc (human) (chain, as listed by the source): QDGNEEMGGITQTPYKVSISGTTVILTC

Kd [nM] | Binder
1 | 38E4v1 (antibody, V domains shown) VH: EVQLVQSGAEVKKPGASVKVSCKASGFTFTSYYIHWVRQAPGQGLEWIGWIYPENDNTKYNEKFKDRVTITADTSTSTAYLELSSLRSEDTAVYYCARDGYSRYYFDYWGQGTLVTVSS VL: DIVMTQSPDSLAVSLGERATINCKSSQSLLNSRTRKNYLAWYQQKPGQSPKLLIYWTSTRKSGVPDRFSGSGSGTDFTLTISSLQAEDVAVYYCKQSFILRTFGQGTKVEIK
13 | 40G5c (antibody, V domains shown) VH: EVQLVQSGAEVKKPGASVKVSCKASGYTFTNYYIHWVRQAPGQGLEWIGWIYPGDGNTKYNEKFKGRATLTADTSTSTAYLELSSLRSEDTAVYYCARDSYSNYYFDYWGQGTLVTVSS VL: DIVMTQSPDSLAVSLGERATINCKSSQSLLNSRTRKNYLAWYQQKPGQPPKLLIYWASTRESGVPDRFSGSGSGTDFTLTISSLQAEDVAVYYCTQSFILRTFGQGTKVEIK
